Columns and labels:
[1] = biological target: myometrial progesterone receptors; conditions: cited from earlier work
[2] = biological target: T1, progesterone receptor isoform B (PRB), full length (Homo sapiens (Human), UniProt P06401 1-933); experiment: summary of Example 1; in vivo and in vitro protein interaction assays
T1 construct: From expression vector pSG5 PRB; expressed in 293T or SHM cells, or translated in rabbit reticulocyte lysate with ^35S methionine for the GST pulldown; also called ^35S-labeled PRB; full length PR
T1 sequence: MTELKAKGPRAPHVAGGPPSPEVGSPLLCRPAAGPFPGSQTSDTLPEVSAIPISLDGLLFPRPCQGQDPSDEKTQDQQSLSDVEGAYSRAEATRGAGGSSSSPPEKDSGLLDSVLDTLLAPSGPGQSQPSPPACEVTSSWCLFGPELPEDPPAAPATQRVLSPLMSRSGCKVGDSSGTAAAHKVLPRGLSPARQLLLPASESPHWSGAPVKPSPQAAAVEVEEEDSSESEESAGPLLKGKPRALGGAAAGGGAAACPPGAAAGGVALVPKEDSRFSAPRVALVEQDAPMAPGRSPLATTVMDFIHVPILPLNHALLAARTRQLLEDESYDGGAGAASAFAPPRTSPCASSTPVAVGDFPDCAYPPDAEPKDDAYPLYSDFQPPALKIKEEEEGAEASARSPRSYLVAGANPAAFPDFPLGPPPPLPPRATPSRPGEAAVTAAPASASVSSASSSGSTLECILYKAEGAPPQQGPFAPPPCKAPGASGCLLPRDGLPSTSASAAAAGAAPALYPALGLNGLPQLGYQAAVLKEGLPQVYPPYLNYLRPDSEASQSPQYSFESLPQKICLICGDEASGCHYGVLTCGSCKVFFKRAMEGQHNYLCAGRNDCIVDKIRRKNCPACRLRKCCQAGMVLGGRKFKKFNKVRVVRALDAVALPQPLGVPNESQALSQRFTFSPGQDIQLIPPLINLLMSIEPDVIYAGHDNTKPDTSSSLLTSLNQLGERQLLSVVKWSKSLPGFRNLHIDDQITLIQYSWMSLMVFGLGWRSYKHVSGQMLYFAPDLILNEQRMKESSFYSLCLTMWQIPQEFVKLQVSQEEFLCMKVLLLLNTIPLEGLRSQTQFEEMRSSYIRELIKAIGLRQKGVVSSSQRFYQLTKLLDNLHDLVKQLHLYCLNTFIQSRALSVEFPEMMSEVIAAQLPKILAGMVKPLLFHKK

[3] = biological target: T2, PR DNA binding domain / PRE (Homo sapiens, UniProt P06401); experiment: Electrophoretic Mobility Shift Assay of PR binding to PRE; conditions: nuclear extract of 293T cells transfected with Flag-PRB, increasing doses
T2 construct: PR 556-650 was also inserted downstream of T7 promoter of pcDNA3; made in house; host or cells: rabbit reticulocyte lysate (TNT, Promega); GST-PSF from E. coli
T2 sequence (P06401 1-933): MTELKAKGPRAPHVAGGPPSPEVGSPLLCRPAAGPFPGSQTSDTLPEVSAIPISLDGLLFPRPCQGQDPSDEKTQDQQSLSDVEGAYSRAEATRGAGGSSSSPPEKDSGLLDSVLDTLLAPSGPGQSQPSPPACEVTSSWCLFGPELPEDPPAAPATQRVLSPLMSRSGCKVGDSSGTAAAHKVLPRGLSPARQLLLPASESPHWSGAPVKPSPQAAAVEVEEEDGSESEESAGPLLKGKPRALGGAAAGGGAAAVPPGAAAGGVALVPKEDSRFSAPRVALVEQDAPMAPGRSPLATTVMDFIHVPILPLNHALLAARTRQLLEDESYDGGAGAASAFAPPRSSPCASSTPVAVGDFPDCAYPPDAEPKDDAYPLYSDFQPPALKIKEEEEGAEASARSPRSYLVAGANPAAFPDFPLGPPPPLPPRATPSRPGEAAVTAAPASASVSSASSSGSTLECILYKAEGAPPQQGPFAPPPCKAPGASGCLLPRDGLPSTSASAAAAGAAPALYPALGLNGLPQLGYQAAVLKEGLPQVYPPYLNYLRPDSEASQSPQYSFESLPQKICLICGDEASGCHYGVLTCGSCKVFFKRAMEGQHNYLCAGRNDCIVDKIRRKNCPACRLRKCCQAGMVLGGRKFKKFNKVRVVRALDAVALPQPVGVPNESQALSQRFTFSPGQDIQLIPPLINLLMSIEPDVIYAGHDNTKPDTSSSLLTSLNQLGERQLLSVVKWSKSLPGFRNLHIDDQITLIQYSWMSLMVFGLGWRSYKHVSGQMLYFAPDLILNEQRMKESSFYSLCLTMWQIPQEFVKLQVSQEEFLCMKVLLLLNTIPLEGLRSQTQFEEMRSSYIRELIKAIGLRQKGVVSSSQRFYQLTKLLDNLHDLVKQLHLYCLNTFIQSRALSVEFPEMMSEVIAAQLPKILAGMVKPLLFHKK
Procedure: (§1) FIG. 8. PSF interferes with binding of PR DNA binding domain to PRE. (A) Electrophoretic mobility shift assay was performed with ^32P-labeled PRE incubated with in vitro translated PRDBD (1, 2, 5μl in lane 3 to 5 and 2 μl in lane 6 to 11) and increasing amount of bacterially expressed GST (lane 6 to 8) or GST PSF (lane 9 to 11). TNT lysate (lane 2) was used as negative control. (B) PR-Nuclear extraction (1 and 2 μg) as described in the method was incubated with PRE oligo in a dose dependent manner (lane 2 and 3). Anti-PR antiserum (AB-52) was added to the incubation mixture (lane 4). Addition of increasing dose (1 and 2 μl) of GST or GST-PSF in the same reaction as lane 3 was shown in lane 6, 7 and 9, 10. In the control experiments (lane 5 and 8), GST or GST-PSF was incubated with PRE without adding PR-nuclear extract. All reactions contain 10 nM progesterone.
(§2) For immunoprecipitation of the endogenous PR and PSF, T47D cells cultured in 150 mm dishes were lysed in 800 μl NETN buffer containing 150 mM NaCl plus protease inhibitor cocktail. […] Gels were treated with Enhancer (NEN, Boston, US) dried and analyzed by autoradiography. • Cell culture and transient transfection: SHM cells and 293T cells were maintained in DMEM plus 5% FCS (Sigma) as described before (22). […] Luciferase activity was determined by using the luciferin reagent (Promega) according to manufacture's protocol. […]

[4] = biological target: T3, PR DNA binding domain / PRE (Homo sapiens, UniProt P06401); experiment: as above; conditions: in vitro translated PRDBD, 32P-labeled PRE
T3 construct: PR 556-650 was also inserted downstream of T7 promoter of pcDNA3; made in house; host or cells: rabbit reticulocyte lysate (TNT, Promega); GST-PSF from E. coli
T3 sequence (P06401 556-650): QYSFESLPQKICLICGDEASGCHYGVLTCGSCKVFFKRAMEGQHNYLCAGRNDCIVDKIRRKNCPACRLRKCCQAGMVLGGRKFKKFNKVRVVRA
Procedure: as §1, §2

Q: Which Kd [1] does the source give for `CC(=O)[C@H]1CC[C@H]2[C@@H]3CCC4=CC(=O)CC[C@]4(C)[C@H]3CC[C@]12C` [progesterone] here?
A: 1 nM

B1: His-PSF (6xHis-tagged full length human PSF, amino acid 1-707) (other)
chain: MSRDRFRSRGGGGGGFHRRGGGGGRGGLHDFRSPPPGMGLNQNRGPMGPGPGQSGPKPPIPPPPPHQQQQQPPPQQPPPQQPPPHQPPPHPQPHQQQQPPPPPQDSSKPVVAQGPGPAPGVGSAPPASSSAPPATPPTSGAPPGSGPGPTPTPPPAVTSAPPGAPPPTPPSSGVPTTPPQAGGPPPPPAAVPGPGPGPKQGPGPGGPKGGKMPGGPKPGGGPGLSTPGGHPKPPHRGGGEPRGGRQHHPPYHQQHHQGPPPGGPGGRSEEKISDSEGFKANLSLLRRPGEKTYTQRCRLFVGNLPADITEDEFKRLFAKYGEPGEVFINKGKGFGFIKLESRALAEIAKAELDDTPMRGRQLRVRFATHAAALSVRNLSPYVSNELLEEAFSQFGPIERAVVIVDDRGRSTGKGIVEFASKPAARKAFERCSEGVFLLTTTPRPVIVEPLEQLDDEDGLPEKLAQKNPMYQKERETPPRFAQHGTFEYEYSQRWKSLDEMEKQQREQVEKNMKDAKDKLESEMEDAYHEHQANLLRQDLMRRQEELRRMEELHNQEMQKRKEMQLRQEEERRRREEEMMIRQREMEEQMRRQREESYSRMGYMDPRERDMRMGGGGAMNMGDPYGSGGQKFPPLGGGGGIGYEANPGVPPATMSGSMMGSDMRTERFGQGGAGPVGGQGPRGMGPGTPAGYGRGREEYEGPNKKPRF
notes: Expressed in 293T or SHM cells (co-immunoprecipitation, reporter assays) or translated in rabbit reticulocyte lysate with ^35S methionine (GST pulldown); 1 only as 'e.g.' of wild type PSF; also called His tagged PSF; His tagged PSF1-707; not shown: N-terminal 6xHis tag of vector pcDNA3.1 6xHis
Q: Does B1 bind [2]?
A: binds

B2: GST-PSF: bacterially expressed GST-PSF fusion protein (protein)
chain: MSRDRFRSRGGGGGGFHRRGGGGGRGGLHDFRSPPPGMGLNQNRGPMGPGPGQSGPKPPIPPPPPHQQQQQPPPQQPPPQQPPPHQPPPHPQPHQQQQPPPPPQDSSKPVVAQGPGPAPGVGSAPPASSSAPPATPPTSGAPPGSGPGPTPTPPPAVTSAPPGAPPPTPPSSGVPTTPPQAGGPPPPPAAVPGPGPGPKQGPGPGGPKGGKMPGGPKPGGGPGLSTPGGHPKPPHRGGGEPRGGRQHHPPYHQQHHQGPPPGGPGGRSEEKISDSEGFKANLSLLRRPGEKTYTQRCRLFVGNLPADITEDEFKRLFAKYGEPGEVFINKGKGFGFIKLESRALAEIAKAELDDTPMRGRQLRVRFATHAAALSVRNLSPYVSNELLEEAFSQFGPIERAVVIVDDRGRSTGKGIVEFASKPAARKAFERCSEGVFLLTTTPRPVIVEPLEQLDDEDGLPEKLAQKNPMYQKERETPPRFAQHGTFEYEYSQRWKSLDEMEKQQREQVEKNMKDAKDKLESEMEDAYHEHQANLLRQDLMRRQEELRRMEELHNQEMQKRKEMQLRQEEERRRREEEMMIRQREMEEQMRRQREESYSRMGYMDPRERDMRMGGGGAMNMGDPYGSGGQKFPPLGGGGGIGYEANPGVPPATMSGSMMGSDMRTERFGQGGAGPVGGQGPRGMGPGTPAGYGRGREEYEGPNKKPRF
modifications: left off: a dimerising Fc or GST
notes: bacterially expressed GST-PSF fusion protein
Q: What does the source list for B2?
A: association of full-length PR to PRE [3]: decrease of association of PR to PRE; association of PRDBD to PRE [4]: decreased association of PRDBD to PRE

— US20070286806A1, “Methods and Compositions for Modulating a Steroid Receptor” (Mount Sinai Hospital, priority 2004, published 2007)
